From publication PMC4195903
Where “and” joins values, the source holds several entries; their conditions need not be identical. Equal entries are not always repeated.

Assays:
[1] = target: cellular thymidine kinase 1 (TK1), dog (dog (endogenous in ALL cells and mammary tumor tissue)); assay: SEC; ALL cell extract on Superose 12 (FPLC), 0.01 M HEPES pH 7.6, 0.15 M NH4Cl, 0.02% NaN3; fractions tested for TK1 activity and by immunoaffinity/Western blot
[2] = target: cellular thymidine kinase 1 (TK1), dog (dog (endogenous in ALL cells and mammary tumor tissue)); assay: SEC; CMT tissue extract (dog No. 23) on Superose 12 (FPLC), 0.01 M HEPES pH 7.6, 0.15 M NH4Cl, 0.02% NaN3; fractions tested for TK1 activity and by immunoaffinity/Western blot
[3] = target: serum thymidine kinase 1 (sTK1), dog (dog (endogenous in serum)); assay: SEC; CMT serum (dog No. 23) on Superose 12 (FPLC), 0.01 M HEPES pH 7.6, 0.15 M NH4Cl, 0.02% NaN3; fractions tested for TK1 activity and by immunoaffinity/Western blot

| stoichiometry N [1] | stoichiometry N [2] | stoichiometry N [3] | Substance |
| --- | --- | --- | --- |
| 2 | 4 | – | cellular thymidine kinase 1 (TK1), dog (enzyme) |
| – | – | 2 and 4 | serum thymidine kinase 1 (sTK1), dog (enzyme) |
